Here are results for 30 sequences from the nanobody polyreactivity screen of Harvey et al. (2022).

The series is described as follows: yeast display, Sf9 membrane polyspecificity reagent, FACS + sequencing; frameworks hold sequencing errors. The method, boiled down:
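Nanobodies came from a synthetic yeast display library in Saccharomyces cerevisiae BJ5465, induced with galactose for 36–48 hours and stained for 1 hour at 4 °C with 10% biotinylated, detergent-solubilized Sf9 membrane reagent. Cells were enriched on streptavidin microbeads and then FACS-sorted, with low and high (top ~1%) gates set on anti-HA fluorescence for expression and streptavidin fluorescence for reagent binding. Each polyreactivity label reflects the gate a clone came from. Genes were amplified by colony PCR, sequenced by MiSeq 2 × 250 and filtered by CDR length.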
With “QVQLVESGGGLFQAGGSLRLSCAASGRTIQTYTMGRYRQAPGKERELYAVITTRGGRTYYADSVKGRFTISRDNAKNTFYLQINRLKPEDTGVYYCIKGIPTRSVRSYDYWGQGTQVTVSS”, the “polyreactivity (PSR sort gate)” value was “high polyreactivity”. As for “QVQLVESGGGLFQAGGSLRLSCAASGSIFAGYAMGWSRQAPGNERELVATITSSSRTNYADSVKGRFTISRDNAKNTVYLQMNSLKPEDTAVYYCAATSFSVRFTRYYYWGQGTQVTVSS”, the entry is “high polyreactivity”; as for “QVQLVESGGGLFQAGGSLRLSCAASGSIFLYYAMGWYRQAPGKERELDATIRRRDGSTYYADSVKGRFTISRDNAKNTVYLQMNSLIPEDTAVYYCNTAGYYWLHYTMDYWGQVTQVTVSS”, “high polyreactivity”. As for “QVQLVESGGGLFQAGGSLRLSCAASGSIFYNYGMAWYRHAPGKERELVAAIRASGDSTYYADSVKGRFTISRDNAKNTVYLQMNSLKPEDTEVYYCAARPNQSYYGLYYYWGQGTQVTVSS”, the entry is “low polyreactivity”; as for “QVQLVESGGGLFQAGGSLRLSCAASGSIFYYYAMGWYRQAPGKERELVAAITRSSGSTYADSVKGRFTISGDNAMYTVYVQMNSLKPEDTAVYYCATVQSDWRRNYSYYHWGQATQVTVSS”, “high polyreactivity”.

In the case of “QVQLVESGGGLFQAGGSLRLSCAASGSTFGTYAMGRYRPPPAKERELVAAISTGGSTYYADSVKGRFTISRDNAKNTVYLQMNSLKPEDTAVYYCAALADYVRRASDYWGQGTQVTVSS”, the “polyreactivity (PSR sort gate)” value was “low polyreactivity”. The entry for “QVQLVESGGGLFQAGGSLRLSCAASGSTFGWNAMGWYRHAPGKERELVAAINKSGGRTYYADSVKGRFTISRDNAKNTVYLQMISLKPEDTAVYYCAAVTPIRVTSPDYDYWGQGTQVTVSS” is “low polyreactivity”. Take “QVQLVESGGGLFQAGGSLRLSCAASGSTFKFNAMGWYRQAPGKEWELVAAISNRGGTTYYADSVKGRFTISRDNAKNTVYLLMNSLKQEDTAVYYCAAGRVQYYYFWGQGTQVTVSS”: the “polyreactivity (PSR sort gate)” value was “high polyreactivity”. As for “QVQLVESGGGLFQAGGSLRLSCAASGSTFPKYEMGWYRQAPGKERELVATISSGTRTYYADSVKGRFTISRDNAKNTVYLQMNSLKPDDTAVYYCAASYQPRKGAHYGYWGQGSQVTVSS”, the entry is “high polyreactivity”.

Take “QVQLVESGGGLFQAGGSLRLSCAASGSTIWSYAMGWYRQAPGKERELVASITWSGGSTYADSVKGRFTISRDNAKNTVYFQMNRLKPEDTAVYYCARESTLTYYSDDFDYWGQGTQVTVSS”: the “polyreactivity (PSR sort gate)” value is “low polyreactivity”. In the case of “QVQLVESGGGLFQAGGSLRLSCAASGSTLYEYAMGWYRQAPGKERELVAAINWSGGSTYYADSVKGRFTISRDNAKNTVYLQMNSLKPEDTAVYYCNRVKTGSTYRRRYWSMGYWGQGTQVTVSS”, the “polyreactivity (PSR sort gate)” value is “high polyreactivity”. The entry for “QVQLVESGGGLFQAGGSLRLSCAATGSTFSGYAMGWYRQATGKDRELVAAIASTGRTYYADSVKGRFTISRDNAKKTVYLQMNSLKPEDTAVYYCAAKRYTVYVHKYEYWGQGTKVTVSS” is “high polyreactivity”. The entry for “QVQLVESGGGLFQAGGSLRLSCAATGSTYIRYAMGWYRQAPGKEREFVAAITWSGTGTYYADSVKARFTISRDNAKNTVYLQMNSLKPEDTAVYYCAAEWSWVRYSFDYWGQGTQVTVSS” is “high polyreactivity”; for “QVQLVESGGGLFQAGGSLRLSCADSGRIFTSNAMGWYRQATGKVRELVAVISRRGGSTYYADSVKGRFTISRDNAKNTVYLQMNSLKPEDTAVYYCNARVYWYYPMDYWGQGTQVTVSS” it is “low polyreactivity”; for “QVQLVESGGGLFQAGGSLRLSCAPSGRTFSHYAMGWYRQAPGKERELVAAISWSGGRTYYADSVKGRFTISRYNAKNTVYLQMNSLKPEDTAVYYCATDKVSNRRYDYWGQGTQVTVSS” it is “high polyreactivity”. The entry for “QVQLVESGGGLFQAGGSLRLSSAASGSIFINNGMGWYRQAPGKESELVAAIYSGGSTYADSVKGRFTISRDNAKNTVYLQMNSLKPEDTAVYYCAVDVWLRGLYGYEYDYWGQGTQVTVSS” is “low polyreactivity”; for “QVQLVESGGGLFQAGGSLRLSSAASGSTFDPYAMGWSRQAPGKERELVATITYSGGRTYYADSVKGRFTISGDNAKNTVYLQMNSLKPEDTAVYYCAVDVVYWGGDYCGQGTQVTVSS” it is “low polyreactivity”; for “QVQLVESGGGLFQAGGSLRLTCAASGSIFTVYSIGLYRQAPGKERELVAGISSGAGTTYADSVKGRFTISRDNAKNTVYLQMNSLIPEVTAVYYCAAYTWDTDHYWYGYVPYDYWGQGTQVTVSS” it is “low polyreactivity”. “QVQLVESGGGLFQAGGSLRVSCAASGRTFRVYVMGSYRQAPGKERELVAAIRASGGITYYADSVKGRFTLSRDTAKNTVYLQMNSLKPEDTAVYYCAARPRTRYDYWGQGTQVTVSS”: the “polyreactivity (PSR sort gate)” value is reported as “high polyreactivity”. The entry for “QVQLVESGGGLFQAGGSLSLSCAASGRIYNPNALGWYRQAPGKERELVAAITSGDSTNYADSVKGRFTISRDNAKNTVYLEMNSLKPEDTAVYYCAADWTYPYNSWGQGTQVTVSS” is “low polyreactivity”; for “QVQLVESGGGLFQAGGTLRLSCAATGITFRWYAMGWYRQAPGKEMELVAAITYRGGSTHYSDSVKGRFTISRDNAKNTVYLQMNSLKPEDTAVYYCAVRRWPRYRWSDYWGQGTQVTLSS” it is “low polyreactivity”. Take “QVQLVESGGGLFQAGRSLRIRCAASGRILNVYHMGWYRQAPGKERELVAAISSGANTNYAESVKGRFTISRDNAKNTVDLQMNSLKPEDTEVYFCNTEQFYDYDYTFDYWGQGTQVTVSS”: the “polyreactivity (PSR sort gate)” value was “low polyreactivity”.

Turning to “QVQLVESGGGLFQAGVSLRLSCAASGSTFDYYAMGWYRQPPAKERELVAAIRYRGGRTYYADSVKWRFTISRDNAKNTVYLQLNSLKPEDTAVYYCAALTIQSSKTYDYWGQGTQVTVSS”, the “polyreactivity (PSR sort gate)” value is reported as “low polyreactivity”. The entry for “QVQLVESGGGLFQAVGSLRLSCAASGSTFIPNAMGWYRQAPGKERELVADISYSGGTTYYADSVKGRFTISRDNAKKTVYLQMNSLKPEDTSVYYCAAVYYTSFYSWPPYDYWGQGTQVTVSS” is “low polyreactivity”; for “QVQLVESGGGLFQEGGSLRLSCAPSGSTLVFYAMGWYRHAPGKERELVAAITRSGGSTYYADSVKGRFTISRDNAKNTVYLQRNSLKPEDTAVYNCAADERYINERVSWGQGTQVTVSS” it is “low polyreactivity”. The entry for “QVQLVESGGGLGHAGGSLRLSCAASGSIFFWYAMGWYRQAPGKERELVAAITQRTGSTYYADSVKGRFTISRDNAKNTVYLQMNSLKPEDTAVYYCAGKRWRRSFTGNYWGLGTQVTVSS” is “high polyreactivity”; for “QVQLVESGGGLGQAGASLRLICAPSGSIFLIYCMGWYRQSPGKERELVAAITARGGSTYYADSVKGSFTISRDNAKNTVYLQMNSLKPEDTSVYYCNDVGYPDVGAGTYGYWGQGTQVTVSS” it is “low polyreactivity”; for “QVQLVESGGGLGQAGGRLRLSCAASGIYYNAMGWYRQAPGNERELVAAITTGDRTNYADSVKGRFTISRDNAKNTVYLQMNSLKPEDTAVYYCNAVVERLSSTARDFAYDYWGQGTQVTVSS” it is “low polyreactivity”. For “QVQLVESGGGLGQAGGSLRLSCAASGFTFYYYAMGWYRQAPGKERELVAAISYSGGSTYYADSVKGRFTISRDNAKNTVYLQMNSLKPEDTARYYCAADLSTYSRGFDYWGQGTQVTVSS”, the “polyreactivity (PSR sort gate)” value was “high polyreactivity”.

Turning to “QVQLVESGGGLGQAGGSLRLSCAASGFTIIYYAMGWYRQAPGKERELVAAISRRGGRTYYADSVKGRFTISRDNAKNTVYLQMNSLKPEDTAVYYCAADGSGTSISYRYKHDYWGQGTQVTVSS”, the “polyreactivity (PSR sort gate)” value is given as “high polyreactivity”.
